# Molecular target: cGAS (human, UniProt Q8N884 1-522)
# Test: EMSA; 5-10 uM cGAS, 50 fmol DNA, 1 mM Mg2+; 10 mM Hepes-NaOH pH 7.5, 100 mM NaCl, 1 mM DTT, 1 mM MgCl2, 20 ug/mL BSA, 25-50 fmol DNA, 25 C 30 min; native PAGE 5% or 6% (Methods), 0.5x TBE
# Conditions: protein: recombinant; tags: His (pET28a-His-hcGAS); label: 32P
# Sequence of cGAS (Q8N884 whole entry): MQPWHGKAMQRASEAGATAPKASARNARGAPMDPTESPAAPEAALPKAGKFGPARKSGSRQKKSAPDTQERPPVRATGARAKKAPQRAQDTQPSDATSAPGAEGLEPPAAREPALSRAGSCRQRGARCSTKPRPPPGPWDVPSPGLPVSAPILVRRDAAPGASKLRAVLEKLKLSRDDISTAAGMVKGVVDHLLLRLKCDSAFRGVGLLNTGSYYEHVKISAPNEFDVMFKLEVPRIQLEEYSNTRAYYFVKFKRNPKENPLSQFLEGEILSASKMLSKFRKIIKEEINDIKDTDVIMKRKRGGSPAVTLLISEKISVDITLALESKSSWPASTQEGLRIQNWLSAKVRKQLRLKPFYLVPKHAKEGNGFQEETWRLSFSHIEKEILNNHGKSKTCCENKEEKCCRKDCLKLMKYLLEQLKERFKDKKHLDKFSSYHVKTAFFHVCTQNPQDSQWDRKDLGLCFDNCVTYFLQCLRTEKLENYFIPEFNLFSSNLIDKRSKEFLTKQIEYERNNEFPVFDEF
binder,measurement,value
ISRE 45-bp dsDNA (dsDNA) DNA 1: TACAGATCTACTAGTGATCTATGACTGATCTGTACATGATCTACACCAAAGAGCATTGTAGATCATGTACAGATCAGTCATAGATCACTAGTAGATCTGTA DNA 2: TACAGATCTACTAGTGATCTATGACTGATCTGTACATGATCTACAATGCTCTTTGGTGTAGATCATGTACAGATCAGTCATAGATCACTAGTAGATCTGTA,binding result,binds

# Source: publication doi:10.1101/2020.07.27.222380, “NBS1-CtIP–Mediated DNA End Resection Regulates cGAS Binding to Micronuclei”
